Experimental findings from publication PMC7066533 (Frontiers in Pharmacology, 2020) are described below.

For orientation: Ki means a measure of affinity in units of concentration, obtained from inhibition or displacement. Higher therefore signals weaker binding.

Square brackets hold non-standard residues; d marks the D form. βAla = NCCC(=O)O

For assay [1], the target named is T1, human kappa opioid receptor (human, UniProt P41145 1-380). As to the kind of experiment: cell-based or functional assay.
Assay [2] deals with T2, human delta opioid receptor (human, UniProt P41143 1-372).
T2 construct: human delta opioid receptor, stably expressed in HEK-293 cells; membrane preparations used; also called hDOPr; DOPr; source: HEK-293 cells stably expressing hDOPr, cell membranes
The assay is described as follows: radioligand binding; displacement of 2.5 nM [3H]DAMGO (MOPr), 2 nM [3H]diprenorphine (DOPr) or 1 nM [3H]U69,593 (KOPr) from membranes of receptor-expressing HEK-293 cells; 25°C, 90 min, 100 mM Tris-HCl, 0.3% BSA; competitor 10^-12 to 10^-4 M; Ki from IC50 by Cheng-Prusoff. The note with it: one partner purified.

Assay [3] concerns the target T1, human kappa opioid receptor. The assay is described as above. The conditions noted are these: one partner purified.
Assay [4] concerns the target T3, human mu opioid receptor (human, UniProt P35372 1-400).
T3 construct: human mu opioid receptor, stably expressed in HEK-293 cells; membrane preparations used; also called hMOPr; MOPr; source: HEK-293 cells stably expressing hMOPr, cell membranes
Described as above. The note with it: one partner purified.

B1: LOR17 (c[Phe-Gly-(β-Ala)-D-Trp]) (peptide)
chain: cyclo(FG[βAla][dW])
SMILES: O=C1CNC(=O)[C@H](Cc2ccccc2)NC(=O)[C@@H](Cc2c[nH]c3ccccc23)NC(=O)CCN1
Consider B1, for which the “IC50 of inhibition of forskolin-induced cAMP accumulation, HEK-293/KOR cells” value in assay [1] amounted to 2.8 nM. For the same molecule, the “IC50 of inhibition of forskolin-induced cAMP accumulation, U87-MG cells (endogenous KOPr)” value in assay [1] stood at 3.1 nM. For the same molecule, the “IC50 of inhibition of forskolin-induced cAMP accumulation, normal human astrocytes (endogenous KOPr)” value in assay [1] was 3 nM. The figures for the Ki in assay [2], in assay [3] and in assay [4] were greater than 100000 nM, 1.19 nM and greater than 100000 nM, respectively.
